Test results taken from patent US20050043235A1 (LICENTIA, published 2005).

Assays:
[1] = target: T1, neuropilin-1-Ig (UniProt O14786 22-856); assay: precipitation of 35S-labelled protein with neuropilin-1-Ig, SDS-PAGE (FIG. 5A)
T1 construct: also called NP1; NP-1; not shown: Ig part of the fusion, not described
T1 sequence (looked up): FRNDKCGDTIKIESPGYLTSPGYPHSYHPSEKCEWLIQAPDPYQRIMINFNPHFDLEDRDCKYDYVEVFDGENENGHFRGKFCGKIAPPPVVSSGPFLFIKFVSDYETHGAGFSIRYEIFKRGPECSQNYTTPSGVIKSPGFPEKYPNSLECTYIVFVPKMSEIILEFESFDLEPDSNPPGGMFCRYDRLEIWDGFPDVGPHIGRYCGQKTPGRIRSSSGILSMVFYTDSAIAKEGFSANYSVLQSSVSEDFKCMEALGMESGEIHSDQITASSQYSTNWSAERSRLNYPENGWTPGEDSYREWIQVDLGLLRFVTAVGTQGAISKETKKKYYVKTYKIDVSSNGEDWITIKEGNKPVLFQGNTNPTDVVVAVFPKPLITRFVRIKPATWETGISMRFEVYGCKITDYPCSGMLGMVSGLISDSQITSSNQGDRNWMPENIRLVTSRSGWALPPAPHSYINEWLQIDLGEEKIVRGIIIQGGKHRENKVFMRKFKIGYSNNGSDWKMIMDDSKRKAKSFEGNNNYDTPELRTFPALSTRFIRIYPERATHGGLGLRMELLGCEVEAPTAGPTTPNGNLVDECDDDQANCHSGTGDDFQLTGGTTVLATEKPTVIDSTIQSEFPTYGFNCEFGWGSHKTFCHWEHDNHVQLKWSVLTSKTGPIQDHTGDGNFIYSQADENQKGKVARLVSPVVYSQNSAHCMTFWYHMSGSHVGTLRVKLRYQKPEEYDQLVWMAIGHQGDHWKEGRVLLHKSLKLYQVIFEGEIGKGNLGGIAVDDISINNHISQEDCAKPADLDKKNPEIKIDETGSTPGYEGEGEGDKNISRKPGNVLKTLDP

[2] = target: T2, VEGFR-1-Ig (UniProt P17948 27-553); assay: precipitation of 35S-labelled protein with VEGFR-1-Ig, SDS-PAGE (FIG. 5B)
T2 construct: not shown: Ig part of the fusion, not described
T2 sequence (P17948 27-553): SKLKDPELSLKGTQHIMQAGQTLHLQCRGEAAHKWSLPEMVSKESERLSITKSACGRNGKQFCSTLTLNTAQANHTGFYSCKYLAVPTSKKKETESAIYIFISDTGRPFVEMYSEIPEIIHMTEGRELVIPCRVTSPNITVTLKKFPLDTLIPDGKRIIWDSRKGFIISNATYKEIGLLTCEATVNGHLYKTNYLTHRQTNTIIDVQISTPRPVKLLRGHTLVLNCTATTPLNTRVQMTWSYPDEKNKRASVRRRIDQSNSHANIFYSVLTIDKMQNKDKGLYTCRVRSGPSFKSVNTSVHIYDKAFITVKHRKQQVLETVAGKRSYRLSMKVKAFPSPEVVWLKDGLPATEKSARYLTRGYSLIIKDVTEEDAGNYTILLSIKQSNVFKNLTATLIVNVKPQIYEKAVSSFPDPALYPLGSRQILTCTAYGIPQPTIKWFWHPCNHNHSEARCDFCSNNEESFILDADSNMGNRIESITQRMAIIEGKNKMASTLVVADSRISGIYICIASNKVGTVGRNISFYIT

B1: VEGF-CΔNΔC (ligand)
chain: TEETIKFAAAHYNTEILKSIDNEWRKTQCMPREVCIDVGKEFGVATNTFFKPPCVSVYRCGGCCNSEGLQCMNTSTSYLSKTLFEITVPLSQGPKPVTISFANHTSCRCMSKLDVYRQVHSIIRR
notes: also called N C; VEGF-C short form
binding result [1]: no binding
binding result [2]: no binding

B2: CA65, chimeric protein of the VEGF homology domain of VEGF-C and VEGF exon 7-8 encoded sequences (ligand)
chain: TEETIKFAAAHYNTEILKSIDNEWRKTQCMPREVCIDVGKEFGVATNTFFKPPCVSVYRCGGCCNSEGLQCMNTSTSYLSKTLFEITVPLSQGPKPVTISFANHTSCRCMSKLDVYRQVHSIIRRPCGPCSERRKHLFVQDPQTCKCSCKNTDSRCKARQLELNERTCRCDKPRR
notes: Exon 7-8 is used here; also called pEBS7/CA65; pREP7/CA65
binding result [2]: no binding

B3: CA89, chimeric protein of the VEGF homology domain of VEGF-C and VEGF exon 6-8 encoded sequences (ligand)
chain: TEETIKFAAAHYNTEILKSIDNEWRKTQCMPREVCIDVGKEFGVATNTFFKPPCVSVYRCGGCCNSEGLQCMNTSTSYLSKTLFEITVPLSQGPKPVTISFANHTSCRCMSKLDVYRQVHSIIRRKSVRGKGKGQKRKRKKSRYKSWSVPCGPCSERRKHLFVQDPQTCKCSCKNTDSRCKARQLELNERTCRCDKPRR
notes: CA89 is released only with heparin in the medium; also called pEBS7/CA89; pREP7/CA89
binding result [2]: no binding
